# ± gives the standard deviation.
# Assay: protein stability index of a GFP-peptide fusion (GPS, HEK-293T) (PSI 1-6); higher = more stable
# Conditions: c terminus: a fixed tail appended
# 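Also: 24-mer peptide tiles fused after GFP, lentivirally expressed, FACS-sorted into six equal bins by GFP/DsRed ratio, decoded by Illumina sequencing, PSI is the read-weighted mean bin number.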
Sequence,protein stability index (treatment: DMSO),"protein stability index (treatment: MLN4924 1 uM, 8 h)"
AFWSLVTLGSSFIPGEHFWLLLLT [SPNS1],2.85 ± 1.5,2.91 ± 1.1
RPRALPCQRSRYRDSLTQPDEEPM [RSPH3],4.62 ± 0.36,5.01 ± 0.17
SASAKRVWNMTATRPKKMGSQLPK [FATE1],3.76 ± 0.27,3.79 ± 0.18
EDPFYWVSPGVLVLLAVLPVLLLQ [MOG],2.52 ± 0.41,2.38 ± 0.69
IASFIRGPNPSKLIQQFLTLRPDQ [CDS2],2.24 ± 0.17,2.33 ± 0.22
AAHAVVLCALPVHVAVEHQLPPAS [SOAT2],2.16 ± 0.32,2.52 ± 0.39
ELDIPQSVQQNGSIYIHVYFTKSG [CLPTM1],2.3 ± 0.57,2.85 ± 0.67
RNLEDIHMSLEKDIAAMTNSLFID [TEKT4],3.29 ± 0.33,3.33 ± 0.27
ESIESYDSCDRLTQSWSSQSSFNS [ETS1],3.91 ± 0.34,4.1 ± 0.3
EDRKLPAPGADVKVHRARKTMPKS [EHMT1],5.28 ± 0.31,5.19 ± 0.18
ETILNAFKMLDPDGKGKINKEYIK [MYL5],2.96 ± 0.31,3.17 ± 0.41
TVRAMTHVINQGMAMYWGTSRWSS [KCNAB2],2.91 ± 0.42,2.75 ± 0.51
DELQQSFQKSHNSLQRWEHLKKVA [PRIM1],3.76 ± 0.38,3.88 ± 0.45
FRLVEKSCPEGDASECPQATNAKD [PPEF2],5.11 ± 0.21,5.41 ± 0.28
TPMTIPEFFRESVNRFGTYPALAS [ACSBG2],2.6 ± 0.41,2.78 ± 0.14
SVHNDLWESWFVPDPAGIFKLNHH [GLT8D2],2.38 ± 0.18,2.53 ± 0.22
RAGSQVVATTARHSAAYRADPLRV [FUNDC2],3.59 ± 0.22,3.78 ± 0.17
NKAAVMVHQLSKKEASRHAIMRSP [CTNNB1],3.86 ± 0.16,3.8 ± 0.2
ESFYESTSPECASPQFEGPLSPPP [NEUROD6],4.92 ± 0.19,4.94 ± 0.22
PLGVDESLFSYGLRESIASYLSLT [SLA],2.03 ± 0.19,2.3 ± 0.13
NQNRAYVTLAAHFLGLGAPNCLSM [ZBED1],3.07 ± 0.95,3.08 ± 0.59
VENECYQVFLDRINRADYCPECYP [TOR1AIP2],2.43 ± 0.42,2.62 ± 0.27
LEKEREKEISDDEAEEEKGEKEEE [HSP90AB1],5.66 ± 0.34,5.74 ± 0.21

Sequence,protein stability index (treatment: DMSO),"protein stability index (treatment: MLN4924 1 uM, 8 h)"
RLELERKIESLMDEIEFLKKLHEE [PRPH],3.32 ± 0.17,3.44 ± 0.31
DEYQYSFWDLFRSKDNMRTRIMIG [SLC2A12],1.85 ± 0.38,2.14 ± 0.38
LLFKLVAPVTFRHHRYDDLVRTLY [CPN1],2.65 ± 0.63,2.83 ± 0.56
EKKDDENIPMETEETHLEETTESQ [SMARCE1],5.58 ± 0.43,5.39 ± 0.57
LLRPPVAAFVRAQADLLAHLVPEP [DNAAF3],2.23 ± 0.31,2.33 ± 0.31
GQAEEELIKAKSQARLEEQQRLAH [LRRC45],5.13 ± 0.26,4.91 ± 0.38
VILLPYVSKVTGWCRDRLLGHREP [TMEM175],2.28 ± 0.3,2.04 ± 0.36
CESCVDLLFVRGAGNCPECGTPLR [MNAT1],4.27 ± 0.32,4.51 ± 0.17
VQKLVKVCTDTDRWSLISLSNKNG [TENT5C],2.64 ± 0.034,2.85 ± 0.26
VGKTRLICARACNTTLTQYQLLAT [RHOBTB1],2.18 ± 0.35,2.21 ± 0.12
PERLCSGPGIVGNVLVDPSARIGQ [GMPPB],3.92 ± 0.27,3.89 ± 0.22
EQLQGFNTRVRELAQAAGFAPQTG [DNAAF3],3.66 ± 0.28,3.91 ± 0.67
CVLYACFILGRLCVPVFANMSREP [SOAT2],3 ± 0.36,3.31 ± 0.21
PTMPQPIEKVSVSTQTKKLSASSP [ZMYND11],5.28 ± 0.18,5.24 ± 0.25
RDNGDPSLSSTATVLLVLEDEDPE [PCDHGC5],4.94 ± 0.36,5.16 ± 0.12
FARVKKGADGVMRTMAPEKLLKSM [SNAP91],2.7 ± 0.18,3.05 ± 0.42
VCAICQINLEGKTFYSKKDRPLCK [PDLIM7],2.1 ± 0.44,2.42 ± 0.5
QASKLRASKEEKEDWLSHALSRKK [FBF1],4.5 ± 0.24,4.54 ± 0.26
KGKTAVDTVFRFDPRYNKWMQVAS [KLHL13],2.4 ± 0.3,2.94 ± 0.5
SNDFKSVLEVRTENLKQQRSRREQ [STX5],4.9 ± 0.21,4.92 ± 0.31
DCSDILRLIKELAKYEYMEEQVIL [SAT1],1.95 ± 0.51,2.23 ± 0.1
VARVLRGCLENMPEADCIPKEQLS [PLK2],3.42 ± 0.26,3.62 ± 0.13

# Source: the supplement of paper PMC10567573
